# Where a chain is given by its changes, count along the chain named.
# B1: S1E12 scAb (scFv, not shown: small tags and cut ends)
# scFv: QVQLQESGPSLVKPSQTLSLTCTVSGFSLGSNSVGWVRQAPGKAPEWVAGIDTDGEEGYNPALNSRLSITRDTSKSQVSLSLSSVTSEDTAVYYCGRSYRADGLAYGYVQAIDYWGPGLLVTVSSEGKSSGASGESKVDDRVVRTQPSSVSGSLGQRVSITCSGSFIGISSVGWFQQLPGSGLRTIIVASDGRPSGVPDRFSMSKSGNTATLTISSLQAEDEADYFCGSSDRTQYTGVFGSGTRLTVLG
# notes: scAb
# B2: CC7 scAb (scFv, not shown: small tags and cut ends)
# scFv: QVQLQESGPSLVKPSQTLSLTCTVSGFSLTSNAVIWVRQAPGKAPEWVALIDVDGDAAYDPALKSRLSITRDTSKSQVSLSLRSVTTEDTAVYYCARDYGSWGYVSDIDYWGPGLLVTVSSEGKSSGASGESKVDDRVVRTQPSSVSGSLGQRVSITCSGSYITGSSVGWFQQVPGSGLKTVIYDNNDRPSGVPDRFSGSKSGDTATLTISSLQAEDEADYYCASYDTSNIGLFGSGTRLTVLG
# notes: scAb
# B3: CE3 mAb (antibody, mouse IgG2a, V domains shown)
# VH: QVRLQESGPSLVKPSQTLSVTCTVSGFSLISNAVGWVRQAPGKVPESLAGCSSDGKCYYNSALKSRLDITRDTSKNQISLSLSSVTTDDAAVYYCTRGYYPVYGYDYLGTIDYWGPGLLVTVSS
# VL: QAVLTQPSSVSGSLGQRVSITCSGSSSNVGRNDVAWFQQLPGSGLRTIIYGTTSRPSGIPDRFSGSKSGVTATLTIDSLQAEDEADYFCASGDSSAINDIFGSGTRLTVLG
# notes: sheep-mouse IgG2a chimeric mAb
# B4: 412E10 mAb (antibody, mouse IgG2a, V domains shown)
# VH: QVQLQESGPSLVKPSQTLSLTCTVSGFSVISDSVAWVRQAPGKVPEWLGASGSSGNKYYNPALKSRLSITRDTSKSQVSLSLSSVTTEDTAVYYCARGIIAGVDVWGRGLLVTVSS
# VL: QAVLTQPSSVSGSLGQRVSITCSGSSSNVGYGNYVGWYQQVPGSAPKLLIYGTAIRASGVPDRFSGSRSGDTATLTITSLQAEDEADYYCASYQSNYAFFGSGTRLTVLG
# notes: as for B3
# B5: CE2 mAb (antibody, mouse IgG2a, V domains shown)
# VH: QVQLQESGPSLVKPSQTLSLTCTVSGFSLTNYPVGWVRQAPGKALEWIGNIENDGSANYASALKSRLSITRDTSKNQVSLSLSSATTEDTAVYYCGREFGGSDGYTYFVDIDYWGPGLLVTVSS
# VL: QAVLTQPSSVSKSLGQSVSITCSGSSSNVGYGNYVSWFQQVPGSAPKILIYGATSRASGVPDRFSGSRSGNTATLTITSLQAEDEADYYCASYDGSSSGVFGSGTRLTVLG
# notes: as for B3
# B6: 3aH6 mAb (antibody)
# heavy: QVQLQESGPSLVKPSQTLSLTCTVSGFSLSSNGVGWVRQAPGKVPEWLGDISSVGKKYANPALKSRLSFTRDTSKSQVSLSLSSVTTEDTAVYYCVKCRDGGVTYGYDIDYWGPGLLVTASSAKTTAPSVYPLAPVCGDTTGSSVTLGCLVKGYFPEPVTLTWNSGSLSSGVHTFPAVLQSDLYTLSSSVTVTSSTWPSQSITCNVAHPASSTKVDKKIEPRGPTIKPCPPCKCPAPNLLGGPSVFIFPPKIKDVLMISLSPIVTCVVVDVSEDDPDVQISWFVNNVEVHTAQTQTHREDYNSTLRVVSALPIQHQDWMSGKEFKCKVNNKDLPAPIERTISKPKGSVRAPQVYVLPPPEEEMTKKQVTLTCMVTDFMPEDIYVEWTNNGKTELNYKNTEPVLDSDGSYFMYSKLRVEKKNWVERNSYSCSVVHEGLHNHHTTKSFSRTPGK
# light: QAVVTQPSSVSGSLGQSVSITCSGSSGNVGYGDYVSWFQQFHGSAPKLLIYGATNLASGVPARFSGSRSGNTATLTISSLHAEDEADYYCASYDSSSGGVFGSGTRLTVLGGQPKSSPSVTLFPPSSEELETNKATLVCTITDFYPGVVTVDWKVDGTPVTQGMETTQPSKQSNNKYMASSYLTLTARAWERHSSYSCQVTHEGHTVEKSLSRADCS
# B7: 3bG4 mAb (antibody, mouse IgG2a, V domains shown)
# VH: QVQLQESGPSLVKPSQTLSLTCTISGFSLISNGVGWVRQAPGKVPEWVGDIASSGKAYSNPALKSRLSITRDTSKSQVSLSLRSVTTEDTAVYYCVRCRDGGVTYGYDIDYWGPGLLVTVSS
# VL: QAVLTQPSSVSKSLGQSVSITCSGSTSNVGSGNDVSWFQQVPGSAPKLLFYGATNRASGVPDRFSGSRSGNTATLTITSLQAEDEADYYCGSYDSNSGGIFGSGTRLTVLG
# notes: as for B3
# B8: 3aG3 mAb (antibody, V domains shown)
# VH: B7 VH with I24V, I30S, A52S, S59A, S74A, S76T, S79F, R83S, T104S
# VL: QAVLTQPPSVSGSPGQRVSITCSGSSSNIGGGNYLSWFQQVPGSAPKLLIYGATSRASGVPDRFSGSRSGNTATLTISSLQAEDEADYYCASFDTSSGGIFGAGTRLTVLG
# B9: 3bD11 mAb (antibody)
# chain: RVRLQGSGPSLVKPSQTLSLTCTVSGFSFDSYYVGWVRQAPGKALEWLGNIYSTGRAFYNPALKSRLSITRDTSKSQVSLSVSSVTIEDTALYYCVRGSYYHGGGNGMVDFFDYWSPGLLVTVSSEGKSSGASGESKVDDQVVRTQPSSVSGSLGQRVSITCSGSSSNVGYGNYVGWFQQVPGSAPKLLIYAATSRASGVPDRFSGSRSGNTATLTIDSLQAEDEADYYCSSYQRGNTGVFGSGTRLTVLG
# B10: E1B8 mAb (antibody, V domains shown)
# VH: B5 VH
# VL: B5 VL
# B11: MD9 mAb (antibody, V domains shown)
# VH: QVRLQESGPSLVKSSQTLSLTCTVSGFSLTRESIAWVRQAPGKVPEWLGGVGIDGTSYYSPALKSRLSITRDTSKSQASLSLSSVATEDTAMYYCARNYIDFEYWGPGLLVTVSS
# VL: QAVLTQLSSVSGSLGQRISITCSGSSSNVGIYDVSWFQQLPGSGLRTVIYGTNNRPSGVPDRFSGSRSGNTATLTISSLQSEDEAIYYCAAGDSSTIAVFGSGTRLTVLG
# Experiments:
# [1] = molecular target: T1, full length human tau protein 2N4R (hT40) (human, UniProt P10636 1-758); assay: SPR, summary table
# T1 construct: recombinant; also called T441
# T1 sequence (P10636 other isoform, or with tags, fused parts or gaps limits assumed): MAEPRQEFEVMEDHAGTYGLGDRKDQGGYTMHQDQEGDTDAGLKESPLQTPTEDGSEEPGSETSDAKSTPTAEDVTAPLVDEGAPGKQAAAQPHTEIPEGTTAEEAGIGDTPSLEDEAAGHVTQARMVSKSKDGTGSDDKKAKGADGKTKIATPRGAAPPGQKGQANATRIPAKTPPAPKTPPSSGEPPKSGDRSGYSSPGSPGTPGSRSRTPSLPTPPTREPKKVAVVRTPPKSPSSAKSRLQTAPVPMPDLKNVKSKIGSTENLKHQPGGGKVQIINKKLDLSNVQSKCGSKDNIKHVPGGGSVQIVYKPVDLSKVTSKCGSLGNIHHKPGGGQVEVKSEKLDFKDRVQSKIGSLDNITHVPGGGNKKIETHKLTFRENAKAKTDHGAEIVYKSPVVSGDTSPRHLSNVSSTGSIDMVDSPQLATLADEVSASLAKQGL
# Protocol: (§1) The capture antibody was diluted 1/100 in 10 mM Sodium acetate buffer pH 5.0 and passed over the activated chip surface for a period of at least 420 s. Final ligand immobilisation levels over 12,000 RU were deemed to be satisfactory.
# (§2) The scAb to be tested was added only to flow cell 2 so that flow cell 1 could act as a control to subtract any interaction with the analyte and the chip surface. […] The multi-cycle protocol was as follows-Three start-up cycles composed of an initial capture, to the desired level, of the scAb to be tested was performed followed by a 30 s injection of glycine buffer pH 2.0 after each cycle to regenerate the chip surface. […] The target was added for a 120 s association period and 420 s dissociation period followed by another regeneration, 30 s injection of glycine buffer pH 2.0 in between each cycle.
# (§3) The single cycle kinetics protocol was similar and utilised the same level of scAb capture. […] In single cycle kinetics the regeneration step was performed only after the final analyte concentration was added. Binding responses were analysed in Biacore X100 evaluation software and data fitted to a 1:1 binding model to obtain kinetic and affinity characterisation.
# dGA (tau 297-390) = dGA (tau 297-390) (human, UniProt P10636 614-707); assay: SPR, scAb captured, tau analyte
# Chain of dGA (tau 297-390) (P10636 614-707 limits assumed): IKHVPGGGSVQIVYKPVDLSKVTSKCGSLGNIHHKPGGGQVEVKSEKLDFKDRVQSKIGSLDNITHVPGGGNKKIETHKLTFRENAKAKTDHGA
# Protocol: as §1, §2, §3
# [2] = molecular target: T1, full length human tau protein 2N4R …; assay: SPR, scAb captured, tau analyte
# Protocol: as §1, §2, §3
# [3] = molecular target: T1, full length human tau protein 2N4R …; assay: Biacore
# Protocol: as §1, §2, §3
# [4] = molecular target: T1, full length human tau protein 2N4R …; assay: sandwich ELISA, S1D12 mAb capture, scAb detection
# Protocol: Full length tau (hT40), at 1 μg/ml starting concentration was added to designated wells and double diluted across rest of the plates and left to incubate at R/T for 1 h. A series of detection scAbs with varying epitope recognition properties were added at 10 μg/ml to designated wells (FIG. 22). For colourimetric detection HRP conjugated anti-HuCk secondary antibody was used and the resulting immunoreaction was developed and absorbance at 450 nm measured as described previously. Cut-off point for a positive binding event was an absorbance value of 0.3 following background subtraction. In order to enhance the assay sensitivity, a chemiluminescent detection method was adopted where 50 μL SuperSignal ELISA Femto Substrate (Thermo Scientific) was added to each well following incubation with anti-HuCK HRP antibody and subsequent washing. The luminescence was read using Clariostar Plus microplate reader. A further modification to this protocol was done where various detection scAbs were directly conjugated with HRP and detected using chemiluminescent protocol as before.
# [5] = molecular target: T1, full length human tau protein 2N4R …; assay: SPR, hT40 immobilised, mAb analyte
# Protocol: (§4) For anti-tau mAb SPR measurements, htau40 was conjugated to the surface of a CM5 sensor chip using amine coupling as explained previously. Briefly, 2 μg/mL htau40 in 10 mM Sodium acetate buffer (pH 4.0) was passed over the activated chip surface (EDC/NHS) in flow cell 2 for a period for 45 s followed by blocking with 1 M ethanolamine-HCl PH 8.5. Flow cell 1 was set up as reference control and blocked simultaneously. Final immobilisation level of htau40 (Rmax) was approximately 250 RU. […] The mAb was added for a 120 s association period and 600 s dissociation period followed by a regeneration cycle of 30 s injection of glycine buffer pH 1.5 in between each cycle. Binding responses were analysed in Biacore X100 evaluation software and data fitted to a 1:1 binding model to obtain kinetic and affinity characterisation.
# [6] = molecular target: T1, full length human tau protein 2N4R …; assay: SPR, hT40 immobilised, mAb analyte; remark: listed apart in the source
# Protocol: as §4
# For anti-tau mAb SPR measurements (Biacore X100™) and epitope mapping, the same methodologies described above (see Example 16) were followed.
binder,measurement,setting,value
B1,Kd,[1],0.829 nM
same,Kd,dGA (tau 297-390),0.543 nM
same,koff,dGA (tau 297-390),0.00163 s⁻¹
same,kon,dGA (tau 297-390),2.99e+06 M⁻¹ s⁻¹
same,Kd,[2],0.829 nM
same,koff,[2],0.000319 s⁻¹
same,kon,[2],385000 M⁻¹ s⁻¹
B2,Kd,[1],1.23 nM
same,Kd,[3],1.2 nM
same,Kd,[2],1.23 nM
same,koff,[2],0.000366 s⁻¹
same,kon,[2],296000 M⁻¹ s⁻¹
same,LoD chemiluminescence detection,[4],3.33 ng/mL
same,LoD colourimetric detection,[4],6 ng/mL
B3,Kd,[5],16.7 nM
same,koff,[5],0.00172 s⁻¹
same,kon,[5],103000 M⁻¹ s⁻¹
B4,Kd,[5],9 nM
same,koff,[5],0.015 s⁻¹
same,kon,[5],1.66e+06 M⁻¹ s⁻¹
B5,Kd,[5],11 nM
same,koff,[5],0.00522 s⁻¹
same,kon,[5],458000 M⁻¹ s⁻¹
B6,Kd,[6],0.049 nM
same,koff,[6],0.000152 s⁻¹
same,kon,[6],3.13e+06 M⁻¹ s⁻¹
B7,Kd,[6],0.065 nM
same,koff,[6],0.000296 s⁻¹
same,kon,[6],4.54e+06 M⁻¹ s⁻¹
B8,Kd,[6],0.31 nM
same,koff,[6],0.00475 s⁻¹
same,kon,[6],1.53e+07 M⁻¹ s⁻¹
B9,Kd,[6],1.49 nM
same,koff,[6],0.00398 s⁻¹
same,kon,[6],2.67e+06 M⁻¹ s⁻¹
B10,Kd,[6],4.22 nM
same,koff,[6],0.00137 s⁻¹
same,kon,[6],324000 M⁻¹ s⁻¹
B11,Kd,[6],22 nM
same,koff,[6],0.00146 s⁻¹
same,kon,[6],66200 M⁻¹ s⁻¹

# From US20250355001A1 (GTINVENT, published 2025)
